Results: paper PMC7293249
Numbering of substitutions follows the chain as printed.

B1: type I anti-APC mAb TPP-2312 (BAY1316786) (antibody, V domains shown)
VH: EVQLLESGGGLVQPGGSLRLSCAASGFTFSSYWMSWVRQAPGKGLEWVSGVSWNGARTHYADSVKGRFTISRDNSKNTLYLQMNSLRAEDTAVYYCALTGRSGWMRFPNWFDPWGQGTLVTVSS
VL: QSVLTQPPSVSGAPGQRVTISCTGSSSNIGAAYDVHWYQQLPGTAPKLLIYGNNKRPSGVPDRFSGSKSGTSASLAITGLQAEDEADYYCQSYDSSLSGSVFGGGTKLTVL
B2: C25K23Fab (type I Fab, TTP-2781) (Fab, V domains shown)
VH: B1 VH with A56S, S123T
VL: B1 VL with V10A, A13T, T78S, Q81R, A82S

Assays:
[1] = target: human activated protein C (human) (UniProt P04070)
[2] = target: human activated protein C (human) (UniProt P04070); remark: listed apart in the source
[3] = target: human activated protein C (human) (UniProt P04070); assay: ELISA; hAPC or hPC coated directly on Maxisorp plates at 100 ng/well in PBS/Ca2+; antibodies titrated, 1 h at RT; detection with HRP anti-human Fc
[4] = target: human activated protein C (human) (UniProt P04070); remark: listed apart in the source
[5] = target: human activated protein C (human) (UniProt P04070); remark: listed apart in the source
[6] = target: human activated protein C (human) (UniProt P04070); assay: ELISA; APC-binding ELISA of the purified Fabs on human APC and Gla-domainless APC; format not told

Protac-aPTT in normal human plasma, inhibition of APC anticoagulant activity, IC50 [1] [nM] | Protac-aPTT in normal human plasma, maximal inhibition of APC anticoagulant activity [1] [%] | inhibition of APC amidolytic activity (Spectrozyme PCa), IC50 [2] [nM] | maximal inhibition of APC amidolytic activity (Spectrozyme PCa), mAb 0.5-500 nM [2] [%] | EC50 [3] [nM] | TM–TGA in normal human plasma, increase of thrombin generation, EC50 [4] [nM] | Protac-aPTT in FVIII-antibody-treated normal human plasma, IC50 [5] [nM] | Protac-aPTT in hemophilia A plasma, inhibition of APC activity, IC50 [5] [nM] | Protac-aPTT in hemophilia A plasma, maximal inhibition of APC activity [5] [%] | EC50 [6] [nM] | Binder
7 | 93 | 4.8 | 98 | 0.4 | 38 | 5 | 5 | 87 | – | B1
– | – | – | – | – | – | – | – | – | 2 to 4 | B2
